Measured values as given in patent US20240010735A1 (EISAI R AND D MANAGEMENT, published 2024).

B1: mouse anti-EphA4 monoclonal antibody (antibody A) (antibody, mouse IgG1, kappa, V domains shown)
VH: QVQLKQSGPSLVQPSQSLSITCTVSGFSLTRYGVHWVRQSPGKGLEWLGVIWRGGSTDYNAAFMSRLSITKDNSKSQVFFKMNSLQADDTAIYYCAKESLFGVYYDYGYYSMDYWGQGTSVTVSS
VL: DIQMTQSPSSLSASLGERVSLTCRASQEISGYLSWLQQKPDGTIKRLIYAASTLDSGVPKRFSGSRSGSDYSLTISSLESEDFADYYCLQYASYPLTFGAGTKLELKR
notes: purified from hybridoma supernatant
B2: humanized anti-EphA4 monoclonal antibody (antibody B) (antibody, human IgG2, V domains shown)
VH: QVQLVESGGGVVQPGRSLRLSCAVSGFSLTRFGVHWVRQAPGKGLEWVAVIWRGGSTDYNAAFMSRLTISKDNSKNTVYLQMNSLRAEDTAVYYCAKESLFGVYYDYGYYSMDYWGQGTTVTVSS
VL: DIQMTQSPSSLSASVGDRVTITCRASQEISGYLSWLQQKPGKAPKRLIYAASTLDSGVPSRFSGSRSGTEYTLTISSLQPEDFATYYCLQYASYPLTFGGGTKVEIKR
notes: expressed in Expi293F cells; also called humanized antibody of antibody A; HK2-42 / L1-8

Tests used:
[1] = biological target: T1, mouse EphA4 extracellular region-SEAP-His protein (mouse); test: SPR, Biacore T200; EphA4 extracellular region-SEAP-His captured on anti-His chip, antibody as analyte, 1:1 model
T1 construct: also called mouse EphA4 extracellular region-SEAP-His 10
Protocol: The binding affinity of antibody A against mouse and human EphA4 was determined by surface plasmon resonance (SPR method) employing Biacore T200 (GE Healthcare). First, anti-His antibodies (GE Healthcare, 28-9950-56) were fixed to a sensor chip CM5. Fixation was carried out by amine coupling method employing N-hydroxysuccinimide (NHS) and N-ethyl-N′-(3-dimethylaminopropyl) carbodiimide hydrochloride salt (EDC), and ethanolamine was employed for blocking (the sensor chip and reagents for fixation are all from GE Healthcare). This was diluted with the fixation buffer (10 mM sodium acetate, pH 4.5) to 3.5 μg/mL, and fixed onto the sensor chip according to the protocol accompanying Biacore T200. Mouse or human EphA4 extracellular region-SEAP-His 10 was diluted with the running buffer HBS-EP (GE Healthcare, BR-1001-88), and the solution was sent and captured onto the flow cell for 120 seconds (about 10 RU of captured amount). Subsequently, antibody A serially diluted to a range of 100, 50, 25, 12.5, 6.3, 3.2, 1.6, 0 nM with HBS-EP was added to the sensor chip for 120 seconds, and the binding reaction curve at the time of addition (binding phase, 120 seconds) and after completing the addition (dissociation phase, 600 seconds) was sequentially observed. Upon completion of each observation, 4 M MgCl₂ (60 seconds, Wako Pure Chemicals) was added to regenerate the sensor chip. Fitting analysis by 1:1 binding model employing the software accompanying the system, BIA evaluation software, was carried out against the binding reaction curve obtained, and the binding affinity (KD=kd/ka) against mouse and human EphA4 was calculated.
The binding affinity of antibody B obtained in Example 1 against human EphA4 was determined by surface plasmon resonance (SPR method) employing Biacore T200 (GE Healthcare). First, anti-His antibodies (GE Healthcare, 28-9950-56) were fixed to a sensor chip CMS. […]

[2] = biological target: T2, mouse EphA4 extracellular region-Fc-His protein (mouse; human, UniProt Q03137 20-547); test: ELISA; Eph receptor extracellular region-Fc-His captured by anti-6-His antibody, antibody at 10 µg/mL
T2 construct: Used as culture supernatant of transfected cells; not shown: Fc region of human IgG1; histidine tag
Protocol: For antibody B, the evaluation of the binding activity of mouse Eph receptor was carried out according to the following steps.
Rabbit anti-6-His antibodies (Bethyl Laboratories) were coated onto the wells of a 96-well plate (Nunc). After incubating at 4° C. overnight, the wells were blocked at room temperature for 1 hour by 1% Block Ace (DS Pharma Biomedical). After washing 3 times with 0.05% Tween 20/PBS (Thermo […]), each Eph receptor of mouse extracellular region-Fc-His protein (final concentration 1 nM) was seeded into each well, and incubated at room temperature for 1 hour. After washing 3 times, human IgG solution (100 μg/mL, Sigma) and antibody B (10 μg/mL) were supplemented to the wells, and incubated at room temperature for 1 hour. Horseradish peroxidase-labeled goat anti-human Kappa Light Chain antibody (IBL) was added, and incubated at room temperature for 1 hour. After washing 3 times, TMBZ (3,3′,5,5′-tetramethylbenzidine, Sigma) solution was added to the wells, and upon confirmation of modest coloring, an equal amount of quenching solution (1 N H₂SO₄, Wako Pure Chemicals) was added to the wells, and absorbance at 450 nm was read by a microplate reader (PerkinElmer).

[3] = biological target: T3, rat EphA4 extracellular region-SEAP-His protein (rat, UniProt D3ZZK3 20-547); test: ELISA: EphA4 extracellular region-SEAP-His (1 nM) captured on anti-alkaline phosphatase antibody, antibody B titrated with human IgG 100 µg/mL, HRP anti-human IgG, OD450 as % of top concentration
T3 construct: extracellular domain; Its preparation is not described; the limits 20-547 are stated for the Fc-His construct of rat EphA4; not shown: secretory alkaline phosphatase (SEAP); histidine tag
Protocol: (§1) Anti-alkaline phosphatase antibodies (Thermo […]) were coated onto the wells of a 96-well plate (Nunc). After incubating at 4° C. overnight, the wells were blocked at room temperature for 1 hour by 1% Block Ace (DS Pharma Biomedical). After washing 3 times with 0.05% Tween 20/PBS (Thermo […]), mouse, rat, monkey, and human EphA4 extracellular region-SEAP-His proteins (final concentration 1 nM) were seeded into the wells, and incubated at room temperature for 1 hour. After washing 3 times, human IgG solution (100 μg/mL, Mitsubishi Pharma Corporation) and antibody B (0, 0.00013, 0.00064, 0.0032, 0.016, 0.08, 0.4, 2, 10 μg/mL) were supplemented to the wells, and incubated at room temperature for 1 hour. Horseradish peroxidase-labeled donkey anti-human IgG antibody (Jackson ImmunoResearch Laboratories) was added, and incubated at room, temperature for 1 hour. After washing 3 times, TMBZ (3,3′,5,5′-tetramethylbenzidine, Sigma) solution was added to the wells, and upon confirmation of modest coloring, an equal amount of quenching solution (1 N H₂SO₄, Wako Pure Chemicals) was added to the wells, and absorbance at 450 nm was read by a microplate reader (PerkinElmer).

[4] = biological target: T4, human EphA4 extracellular region-SEAP-His protein (human, UniProt P54764 20-547); test: as above
T4 construct: also called human EphA4 extracellular region-SEAP-His 10; not shown: secretory alkaline phosphatase (SEAP); histidine tag
Protocol: as §1

[5] = biological target: T5, monkey EphA4 extracellular region-SEAP-His protein (monkey); test: as above
T5 construct: Its preparation is not described; not shown: secretory alkaline phosphatase (SEAP); histidine tag
Protocol: as §1

[6] = biological target: T1, mouse EphA4 extracellular …; test: as above
Protocol: as §1

T1 sequence (chain, as listed by the source limits assumed): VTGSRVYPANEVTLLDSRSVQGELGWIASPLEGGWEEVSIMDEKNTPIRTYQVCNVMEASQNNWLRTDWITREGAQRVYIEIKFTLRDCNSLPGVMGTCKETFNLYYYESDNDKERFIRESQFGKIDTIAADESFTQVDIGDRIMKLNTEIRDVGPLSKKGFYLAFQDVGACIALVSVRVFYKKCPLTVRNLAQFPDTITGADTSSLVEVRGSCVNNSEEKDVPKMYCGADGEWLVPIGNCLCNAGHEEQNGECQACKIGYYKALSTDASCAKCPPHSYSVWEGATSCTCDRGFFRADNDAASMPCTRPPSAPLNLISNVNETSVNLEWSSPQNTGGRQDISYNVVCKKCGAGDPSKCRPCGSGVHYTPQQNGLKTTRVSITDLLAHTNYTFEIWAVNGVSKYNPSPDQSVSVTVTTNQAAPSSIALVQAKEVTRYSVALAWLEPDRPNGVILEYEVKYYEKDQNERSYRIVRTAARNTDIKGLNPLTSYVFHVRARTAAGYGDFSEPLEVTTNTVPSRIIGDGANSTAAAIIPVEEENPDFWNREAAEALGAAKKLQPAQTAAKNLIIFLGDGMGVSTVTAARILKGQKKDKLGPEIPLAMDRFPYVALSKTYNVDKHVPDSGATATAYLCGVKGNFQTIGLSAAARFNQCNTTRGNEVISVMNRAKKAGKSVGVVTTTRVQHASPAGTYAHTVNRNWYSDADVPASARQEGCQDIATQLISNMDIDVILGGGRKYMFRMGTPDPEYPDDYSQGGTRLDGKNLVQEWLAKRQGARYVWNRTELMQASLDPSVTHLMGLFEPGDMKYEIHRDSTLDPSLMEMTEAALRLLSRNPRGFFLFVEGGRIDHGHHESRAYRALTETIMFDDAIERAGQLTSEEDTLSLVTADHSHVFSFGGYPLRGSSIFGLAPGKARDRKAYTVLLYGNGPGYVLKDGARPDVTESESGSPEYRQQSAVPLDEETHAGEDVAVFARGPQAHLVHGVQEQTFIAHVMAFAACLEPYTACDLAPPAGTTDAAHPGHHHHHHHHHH
T5 sequence (chain, as listed by the source): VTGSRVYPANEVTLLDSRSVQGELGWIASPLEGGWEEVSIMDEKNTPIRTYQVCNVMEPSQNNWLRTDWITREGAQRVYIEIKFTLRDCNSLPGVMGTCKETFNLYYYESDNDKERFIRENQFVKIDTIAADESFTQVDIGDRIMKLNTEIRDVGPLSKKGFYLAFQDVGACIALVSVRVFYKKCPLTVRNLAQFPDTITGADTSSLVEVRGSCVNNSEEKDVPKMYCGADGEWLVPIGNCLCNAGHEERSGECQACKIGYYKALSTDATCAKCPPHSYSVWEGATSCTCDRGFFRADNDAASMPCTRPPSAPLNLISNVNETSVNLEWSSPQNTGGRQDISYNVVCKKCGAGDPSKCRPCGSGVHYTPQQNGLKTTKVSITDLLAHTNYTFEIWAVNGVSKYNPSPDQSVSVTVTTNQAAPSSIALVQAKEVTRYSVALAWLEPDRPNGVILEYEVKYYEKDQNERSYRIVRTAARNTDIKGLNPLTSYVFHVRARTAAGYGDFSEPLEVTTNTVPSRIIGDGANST
T2 sequence (Q03137 20-547): as the sequence (chain, as listed by the source) above, with P59A, N121S, V124G, R250Q, S251N, T270S, K378R counted along it
T4 sequence (P54764 20-547): as the sequence (chain, as listed by the source) above, with S406N counted along it
T3 sequence (D3ZZK3 entry or part of it): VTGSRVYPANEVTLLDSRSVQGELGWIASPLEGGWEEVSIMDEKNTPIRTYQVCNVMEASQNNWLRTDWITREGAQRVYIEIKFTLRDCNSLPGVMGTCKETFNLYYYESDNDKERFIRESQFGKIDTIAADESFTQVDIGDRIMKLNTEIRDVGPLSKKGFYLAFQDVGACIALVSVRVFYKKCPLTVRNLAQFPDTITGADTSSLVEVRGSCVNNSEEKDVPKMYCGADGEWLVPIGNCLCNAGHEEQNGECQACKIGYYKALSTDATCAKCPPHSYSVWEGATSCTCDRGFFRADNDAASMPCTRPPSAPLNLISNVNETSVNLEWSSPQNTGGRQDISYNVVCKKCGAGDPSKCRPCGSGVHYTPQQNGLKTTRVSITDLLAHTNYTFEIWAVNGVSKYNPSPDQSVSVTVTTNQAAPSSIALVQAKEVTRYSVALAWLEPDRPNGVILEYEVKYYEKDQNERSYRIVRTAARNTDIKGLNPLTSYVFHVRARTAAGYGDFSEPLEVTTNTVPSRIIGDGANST

| Binder | Kd [1] [nM] | binding result [2] | EC50 (read off the curve) [3] [nM] | EC50 (read off the curve) [4] [nM] | EC50 (read off the curve) [5] [nM] | EC50 (read off the curve) [6] [nM] |
| --- | --- | --- | --- | --- | --- | --- |
| B1 | 1.32 | – | – | – | – | – |
| B2 | – | binds | ~0.3 | ~0.3 | ~0.3 | ~0.3 |
